Test results reported in patent publication US20240350583A1, “COMPOSITION FOR PREVENTING OR TREATING FIBROTIC DISEASES, COMPRISING HAPLN1” (Chung Ang University Industry Academic Cooperation …, priority 2021, published 2024).

B1: rhHAPLN1: recombinant human HAPLN1 protein of SEQ ID NO: 1 produced in CHO-K1 cells, stabilized in acetic acid buffer, sucrose, PS80, pH 5.0 (protein, listed as Homo sapiens)
chain: MKSLLLLVLISICWADHLSDNYTLDHDRAIHIQAENGPHLLVEAEQAKVFSHRGGNVTLPCKFYRDPTAFGSGIHKIRIKWTKLTSDYLKEVDVFVSMGYHKKTYGGYQGRVFLKGGSDSDASLVITDLTLEDYGRYKCEVIEGLEDDTVVVALDLQGVVFPYFPRLGRYNLNFHEAQQACLDQDAVIASFDQLYDAWRGGLDWCNAGWLSDGSVQYPITKPREPCGGQNTVPGVRNYGFWDKDKSRYDVFCFTSNFNGRFYYLIHPTKLTYDEAVQACLNDGAQIAKVGQIFAAWKILGYDRCDAGWLADGSVRYPISRPRRRCSPTEAAVRFVGFPDKKHKLYGVYCFRAYN

Tests used:
Type in all cases: cell-based
[1] = system: renal proximal tubule epithelial cell (RPTEC); test: Age-induced fibrosis of RPTEC (passage 11), αSMA immunofluorescence; conditions: aged cells (11th passage culture), 72 hours
Method: (1) Renal proximal tubule epithelial cell ([…]) in 12-well plates and cultured in complete renal epithelial cell medium (ATCC PCS-400-030+ATCC PCS-400-040) in an incubator at 37° C. 5% CO2 for 24 hours.
(2) Subsequently, the plates were then treated with the composition of the present disclosure (rhHAPLN1 protein content of 0, 10, 20, 50 and 100 ng/ml) and pirfenidone 0.2 mg/mL (200 μg/mL), respectively, and cultured for 72 hours.
(3) Afterwards, each well was washed twice with PBS, then treated with 4% paraformaldehyde and fixed for 1 hour.
(4) After washing four times with 1×PBS, the wells were treated with 1×PBST (1×PBS+0.1% Triton X-100) containing 1% BSA and blocked for 2 hours.
(5) Primary antibody against αSMA (Abcam ab7817) was diluted 1:200 in 1×PBSTdp and treated and incubated overnight at 4° C.
(6) The next day, the blot was washed four times with 1×PBST.
(7) After treatment with secondary antibody (anti-mouse IgG Alexa Fluor™ 488 1:500 (Invitrogen, A28175)) and DAPI 1:2000 (Invitrogen, D1306), the cells were incubated at room temperature for 1 hour.
(8) Afterwards, 50 ul of Vectashield (Vectorlabs, H-1000) was added, covered with a coverslip, and photographed with a fluorescence microscope.

[2] = system: normal human dermal fibroblast (NHDF); test: TGFβ1-induced fibrosis of human dermal fibroblasts, αSMA western blot
Method: (1) Human dermal fibroblasts (normal human dermal fibroblast, NHDF) were seeded (1.0×10^5 cells/well) in a 6-well plate and incubated in FBM-2 (fibroblast growth medium-2, CC-3131, Lonza) medium for 24 hours in an incubator at 37° C. 5% CO2.
(2) After replacing with serum-free medium, the medium was incubated for 24 hours.
(§1) (3) In this regard, under conditions in which fibrosis was induced by treatment with TGFβ1 (10 ng/ml), each well of the plate was treated with the composition of the present disclosure based on Preparation Example 2 but with rhHAPLN1 protein content of 0, 3, 10, 30, and 100 ng/ml and 100 μg/mL and 200 μg/mL of pirfenidone (Selleckchem), a commercially available anti-fibrotic agent, respectively, and incubated for 24 hours.
(§2) (4) Afterwards, each sample was washed twice with phosphate buffered saline (PBS, pH 7.2), and then the expression level of αSMA, a marker for myofibroblasts, was confirmed by western blot.

[3] = system: normal human lung fibroblast (NHLF); test: TGFβ1-induced fibrosis of normal human lung fibroblasts, αSMA western blot
Method: (1) normal human lung fibroblasts (NHLF) cultured for 9 passages were seeded (1.0×10^5 cells/well) in a 6-well plate and incubated in FBM-2 (Fibroblast Growth Medium-2, CC-3131, Lonza) medium for 24 hours in an incubator at 37° C. 5% CO2. (2) After replacing with serum-free medium, the medium was incubated for 24 hours.
as §1, with “disclosure” for “disclosure based on Preparation Example 2 but”, “3.1, 12.5, 25” for “3, 10, 30,”, “(Selleckchem),” for “(Selleckchem), a commercially available anti-fibrotic agent,”
as §2

[4] = system: human cardiac microvascular endothelial cell (HCMEC); test: TGFβ1-induced fibrosis of human cardiac microvascular endothelial cells, αSMA western blot
Method: (1) Primary human cardiac microvascular endothelial cell (HCMEC; ScienCell, #6000) were seeded (5.7×10^4 cells/well) in a 6-well plate according to the experimental scheme of FIG. 4A and incubated in Endothelial cell medium (ScienCell) for 24 hours in an incubator at 37° C. 5% CO2.
(2) The plates were then treated with TGFβ1 (5 ng/ml) to induce fibrosis and incubated for 3 days.
(3) Afterwards, each well of the plate was then treated with the composition of the present disclosure at rhHAPLN1 protein content of 0, 3, 10, 30, and 100 ng/ml and pirfenidone 100 μg/mL and 200 μg/mL, respectively, and incubated for 3 days.
(4) Each sample was then treated with cell lysis buffer and harvested.
(5) Western blotting was performed on the samples. Here, anti-αSMA Ab (Abcam, ab7817), anti-GAPDH Ab (Santa Cruz, sc-32233) were used as primary antibodies and HRP-conjugated anti-mouse IgG Ab (CST, #7076) as secondary antibodies to confirm the protein expression levels of αSMA and GAPDH.

[5] = all rhHAPLN1 contents, pirfenidone 100 and 200 μg/mL

Row | Molecule | αSMA stained fluorescent areas (FIG. 10B) ([1]; pirfenidone 0.2 mg/ml) | expression level of αSMA at 200 μg/mL versus 100 μg/mL ([2]; pirfenidone 200 μg/mL, TGFβ1 10 ng/ml) | optimal anti-fibrotic concentration (assumed) ([2]; αSMA, TGFβ1 10 ng/ml) | anti-fibrotic effect (expression level of αSMA compared to composition without rhHAPLN1) ([3]; pirfenidone 100 and 200 μg/mL) | expression level of αSMA compared to composition that does not include rhHAPLN1 protein ([4]; pirfenidone 100 and 200 μg/mL) | αSMA stained fluorescent areas compared to composition without rhHAPLN1 (FIG. 10B) ([1]; rhHAPLN1 50 ng/ml and 100 ng/ml) | expression level of αSMA compared to composition that does not include rhHAPLN1 protein (FIG. 1B) ([2]; TGFβ1 10 ng/ml, all rhHAPLN1 contents 3, 10, 30, 100 ng/ml, 24 hours) | anti-fibrotic action from αSMA western blot band, compared to pirfenidone (FIG. 1A) ([2]; TGFβ1 10 ng/ml, pirfenidone 100 and 200 μg/mL) | rhHAPLN1 protein content showing the most excellent anti-fibrotic efficacy ([2]; TGFβ1 10 ng/ml, αSMA) | anti-fibrotic efficacy higher than pirfenidone at 100 μg/mL ([2]; rhHAPLN1 100 ng/ml, αSMA) | expression level of αSMA compared to composition that does not include rhHAPLN1 protein (FIG. 5B) ([3]; TGFβ1 10 ng/ml, rhHAPLN1 3.1, 12.5, 25, 100 ng/ml, 24 hours) | anti-fibrotic action from αSMA western blot band, compared to pirfenidone (FIG. 5A) [3, 5] | anti-fibrotic efficacy relative to pirfenidone at 100 μg/mL and at 200 μg/mL ([3]; rhHAPLN1 12.5 ng/ml) | rhHAPLN1 protein content showing the most excellent anti-fibrotic efficacy ([3]; αSMA) | expression level of αSMA compared to composition that does not include rhHAPLN1 protein (FIG. 4C) ([4]; TGFβ1 5 ng/ml 3 days, then rhHAPLN1 3, 10, 30, 100 ng/ml 3 days) | anti-fibrotic action from αSMA western blot band, compared to pirfenidone (FIG. 4B) [4, 5] | rhHAPLN1 protein content showing the most excellent anti-fibrotic efficacy ([4]; αSMA)
1 | Cc1ccc(=O)n(-c2ccccc2)c1 [pirfenidone, reference compound] | fewer stained fluorescent areas appeared | higher expression level of αSMA than 100 μg/mL | 100 µg/mL | no anti-fibrotic effect | higher than when treated with a composition that does not include rhHAPLN1 protein | – | – | – | – | – | – | – | – | – | – | – | –
2 | B1 | – | – | – | – | – | fewer stained fluorescent areas appeared | significantly lower | much better anti-fibrotic action than pirfenidone | 100 ng/mL | 25% | significantly lower | much better anti-fibrotic action compared to pirfenidone | about twice as higher | 12.5 ng/mL | significantly lower | much better anti-fibrotic action compared to pirfenidone | 3 ng/mL
